According to patent US20210246166A1 (Bayer, published 2021):
Numbered stars: 1 amine (or outer) side, 2 acyl side, 3 side chain; on linkers, the order of the positions; unused ones are H or OH. Bridge positions count the residues as written; N and C are the ends. Square brackets hold non-standard residues; d marks the D form. Primed or numbered codes have the meaning given here. Ends that are not written are not given here. * marks the point of attachment. X12 = (S)‑(trifluoromethyl)‑L‑cysteine, O=C([C@H](CSC(F)(F)F)N[*:1])[*:2]; Tranexamic″ = tranexamic acid, NC[C@H]1CC[C@@H](C(=O)*)CC1; Oic = O=C(O)[C@@H]1C[C@@H]2CCCC[C@@H]2N1; Nva(3-Et) = CCC(CC)[C@H](N)C(=O)O; tBuAla = CC(C)(C)C[C@H](N)C(=O)O; 4Pal = N[C@@H](Cc1ccncc1)C(=O)O; Gly(cBu) = N[C@H](C(=O)O)C1CCC1; Chg = N[C@H](C(=O)O)C1CCCCC1; Pen = CC(C)(S)[C@H](N)C(=O)O; 3Amb = NCc1cccc(C(=O)O)c1; NMeC = CN[C@@H](CS)C(=O)O; Nva = CCC[C@H](N)C(=O)O; PEG2 = NCCOCCOCCC(=O)O; Sar = CNCC(=O)O

T1: Recombinant human MASP1 enzyme (fragment corresponding to amino acids 297-699, C-terminal His Tag) (human, UniProt P48740 297-699)
T1 sequence: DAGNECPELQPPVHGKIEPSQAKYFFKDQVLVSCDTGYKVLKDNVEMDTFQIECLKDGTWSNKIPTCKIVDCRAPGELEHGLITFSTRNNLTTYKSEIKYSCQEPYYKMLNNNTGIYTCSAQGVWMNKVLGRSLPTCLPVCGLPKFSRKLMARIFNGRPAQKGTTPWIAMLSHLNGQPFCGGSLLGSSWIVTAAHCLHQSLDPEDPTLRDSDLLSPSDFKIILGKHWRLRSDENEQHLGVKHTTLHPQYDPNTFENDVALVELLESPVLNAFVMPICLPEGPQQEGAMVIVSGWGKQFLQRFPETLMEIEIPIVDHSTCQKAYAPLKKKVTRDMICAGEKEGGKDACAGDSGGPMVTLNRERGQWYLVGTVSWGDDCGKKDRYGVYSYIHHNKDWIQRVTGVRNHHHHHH

B1: (Nva)-IC+SRSLPPIC+IPD-NH2 (peptide)
peptide: [Nva]ICSRSLPPICIPD-NH2
modifications: disulfide 3-11; N-terminus assumed
SMILES: CCC[C@H](N)C(=O)N[C@H](C(=O)N[C@H]1CSSC[C@@H](C(=O)N[C@H](C(=O)N2CCC[C@H]2C(=O)N[C@@H](CC(=O)O)C(N)=O)[C@@H](C)CC)NC(=O)[C@H]([C@@H](C)CC)NC(=O)[C@@H]2CCCN2C(=O)[C@@H]2CCCN2C(=O)[C@H](CC(C)C)NC(=O)[C@H](CO)NC(=O)[C@H](CCCNC(=N)N)NC(=O)[C@H](CO)NC1=O)[C@@H](C)CC
B2: ((N-Me)G)-GIC+SRS-((tBu)A)-PPI-(Pen)+IPD-NH2 (peptide)
peptide: [Sar]GICSRS[tBuAla]PPI[Pen]IPD-NH2
modifications: disulfide 4-12; N-terminus assumed
SMILES: CC[C@H](C)[C@H](NC(=O)CNC(=O)CNC)C(=O)N[C@H]1CSSC(C)(C)[C@@H](C(=O)N[C@H](C(=O)N2CCC[C@H]2C(=O)N[C@@H](CC(=O)O)C(N)=O)[C@@H](C)CC)NC(=O)[C@H]([C@@H](C)CC)NC(=O)[C@@H]2CCCN2C(=O)[C@@H]2CCCN2C(=O)[C@H](CC(C)(C)C)NC(=O)[C@H](CO)NC(=O)[C@H](CCCNC(=N)N)NC(=O)[C@H](CO)NC1=O
B3: (Tranexamic)-IC+SRS-((tBu)A)-PPI-(Pen)+IP-(PEG1(10 atoms))-NH2 (peptide)
peptide: {Tranexamic″}-ICSRS[tBuAla]PPI[Pen]IP-{PEG2-NH2}
modifications: disulfide 2-10
SMILES: CC[C@H](C)[C@@H]1NC(=O)[C@@H]2CCCN2C(=O)[C@@H]2CCCN2C(=O)[C@H](CC(C)(C)C)NC(=O)[C@H](CO)NC(=O)[C@H](CCCNC(=N)N)NC(=O)[C@H](CO)NC(=O)[C@@H](NC(=O)[C@@H](NC(=O)[C@H]2CC[C@@H](CN)CC2)[C@@H](C)CC)CSSC(C)(C)[C@@H](C(=O)N[C@H](C(=O)N2CCC[C@H]2C(=O)NCCOCCOCCC(N)=O)[C@@H](C)CC)NC1=O
B4: AIC+SRSLPP-(Chg)-C+IPD-OH (peptide)
peptide: AICSRSLPP[Chg]CIPD-OH
modifications: disulfide 3-11; N-terminus assumed
SMILES: CC[C@H](C)[C@H](NC(=O)[C@H](C)N)C(=O)N[C@H]1CSSC[C@@H](C(=O)N[C@H](C(=O)N2CCC[C@H]2C(=O)N[C@@H](CC(=O)O)C(=O)O)[C@@H](C)CC)NC(=O)[C@H](C2CCCCC2)NC(=O)[C@@H]2CCCN2C(=O)[C@@H]2CCCN2C(=O)[C@H](CC(C)C)NC(=O)[C@H](CO)NC(=O)[C@H](CCCNC(=N)N)NC(=O)[C@H](CO)NC1=O
B5: GIC+SRS-((tBu)A)-P-(Oic)-I-((N-Me)C)+IPD-NH2 (peptide)
peptide: GICSRS[tBuAla]P[Oic]I[NMeC]IPD-NH2
modifications: disulfide 3-11; N-terminus assumed
SMILES: CC[C@H](C)[C@H](NC(=O)CN)C(=O)N[C@H]1CSSC[C@@H](C(=O)N[C@H](C(=O)N2CCC[C@H]2C(=O)N[C@@H](CC(=O)O)C(N)=O)[C@@H](C)CC)N(C)C(=O)[C@H]([C@@H](C)CC)NC(=O)[C@@H]2C[C@@H]3CCCC[C@@H]3N2C(=O)[C@@H]2CCCN2C(=O)[C@H](CC(C)(C)C)NC(=O)[C@H](CO)NC(=O)[C@H](CCCNC(=N)N)NC(=O)[C@H](CO)NC1=O
B6: AIC+SRS-((tBu)A)-PPIC+IDD-OH (peptide)
peptide: AICSRS[tBuAla]PPICIDD-OH
modifications: disulfide 3-11; N-terminus assumed
SMILES: CC[C@H](C)[C@H](NC(=O)[C@H](C)N)C(=O)N[C@H]1CSSC[C@@H](C(=O)N[C@H](C(=O)N[C@@H](CC(=O)O)C(=O)N[C@@H](CC(=O)O)C(=O)O)[C@@H](C)CC)NC(=O)[C@H]([C@@H](C)CC)NC(=O)[C@@H]2CCCN2C(=O)[C@@H]2CCCN2C(=O)[C@H](CC(C)(C)C)NC(=O)[C@H](CO)NC(=O)[C@H](CCCNC(=N)N)NC(=O)[C@H](CO)NC1=O
B7: ((N-Me)G)-IC+SRS-((S)-(trifluoromethyl)-L-cysteine)-PPI-(Pen)+IP-NH2 (peptide)
peptide: [Sar]ICSRS[X12]PPI[Pen]IP-NH2
modifications: disulfide 3-11; N-terminus assumed
SMILES: CC[C@H](C)[C@H](NC(=O)CNC)C(=O)N[C@H]1CSSC(C)(C)[C@@H](C(=O)N[C@H](C(=O)N2CCC[C@H]2C(N)=O)[C@@H](C)CC)NC(=O)[C@H]([C@@H](C)CC)NC(=O)[C@@H]2CCCN2C(=O)[C@@H]2CCCN2C(=O)[C@H](CSC(F)(F)F)NC(=O)[C@H](CO)NC(=O)[C@H](CCCNC(=N)N)NC(=O)[C@H](CO)NC1=O
B8: AIC+SRSLPPIC+(Cbg)-PD-NH2 (peptide)
peptide: AICSRSLPPIC[Gly(cBu)]PD-NH2
modifications: disulfide 3-11; N-terminus assumed
SMILES: CC[C@H](C)[C@H](NC(=O)[C@H](C)N)C(=O)N[C@H]1CSSC[C@@H](C(=O)N[C@H](C(=O)N2CCC[C@H]2C(=O)N[C@@H](CC(=O)O)C(N)=O)C2CCC2)NC(=O)[C@H]([C@@H](C)CC)NC(=O)[C@@H]2CCCN2C(=O)[C@@H]2CCCN2C(=O)[C@H](CC(C)C)NC(=O)[C@H](CO)NC(=O)[C@H](CCCNC(=N)N)NC(=O)[C@H](CO)NC1=O
B9: (3-(Aminomethyl)benzoic acid)-IC+SRS-((tBu)A)-PP-(Pen)+IP-NH2 (peptide)
peptide: [3Amb]ICSRS[tBuAla]PP[Pen]IP-NH2
modifications: disulfide 3-10; N-terminus assumed
SMILES: CC[C@H](C)[C@H](NC(=O)c1cccc(CN)c1)C(=O)N[C@H]1CSSC(C)(C)[C@@H](C(=O)N[C@H](C(=O)N2CCC[C@H]2C(N)=O)[C@@H](C)CC)NC(=O)[C@@H]2CCCN2C(=O)[C@@H]2CCCN2C(=O)[C@H](CC(C)(C)C)NC(=O)[C@H](CO)NC(=O)[C@H](CCCNC(=N)N)NC(=O)[C@H](CO)NC1=O
B10: ((N-Me)G)-IC+SRSLP-(Oic)-I-(Pen)+IPE-OH (peptide)
peptide: [Sar]ICSRSLP[Oic]I[Pen]IPE-OH
modifications: disulfide 3-11; N-terminus assumed
SMILES: CC[C@H](C)[C@H](NC(=O)CNC)C(=O)N[C@H]1CSSC(C)(C)[C@@H](C(=O)N[C@H](C(=O)N2CCC[C@H]2C(=O)N[C@@H](CCC(=O)O)C(=O)O)[C@@H](C)CC)NC(=O)[C@H]([C@@H](C)CC)NC(=O)[C@@H]2C[C@@H]3CCCC[C@@H]3N2C(=O)[C@@H]2CCCN2C(=O)[C@H](CC(C)C)NC(=O)[C@H](CO)NC(=O)[C@H](CCCNC(=N)N)NC(=O)[C@H](CO)NC1=O
B11: WIC+SRS-((tBu)A)-PPI-((N-Me)C)+I-NH2 (peptide)
peptide: WICSRS[tBuAla]PPI[NMeC]I-NH2
modifications: disulfide 3-11; N-terminus assumed
SMILES: CC[C@H](C)[C@H](NC(=O)[C@@H]1CSSC[C@H](NC(=O)[C@@H](NC(=O)[C@@H](N)Cc2c[nH]c3ccccc23)[C@@H](C)CC)C(=O)N[C@@H](CO)C(=O)N[C@@H](CCCNC(=N)N)C(=O)N[C@@H](CO)C(=O)N[C@@H](CC(C)(C)C)C(=O)N2CCC[C@H]2C(=O)N2CCC[C@H]2C(=O)N[C@@H]([C@@H](C)CC)C(=O)N1C)C(N)=O
B12: AIC+SRSLPP-((S)-2-amino-3-ethyl-pentanoic acid)-C+IPD-NH2 (peptide)
peptide: AICSRSLPP[Nva(3-Et)]CIPD-NH2
modifications: disulfide 3-11; N-terminus assumed
SMILES: CCC(CC)[C@@H]1NC(=O)[C@@H]2CCCN2C(=O)[C@@H]2CCCN2C(=O)[C@H](CC(C)C)NC(=O)[C@H](CO)NC(=O)[C@H](CCCNC(=N)N)NC(=O)[C@H](CO)NC(=O)[C@@H](NC(=O)[C@@H](NC(=O)[C@H](C)N)[C@@H](C)CC)CSSC[C@@H](C(=O)N[C@H](C(=O)N2CCC[C@H]2C(=O)N[C@@H](CC(=O)O)C(N)=O)[C@@H](C)CC)NC1=O
B13: (4-Pal)-IC+SRS-((tBu)A)-PPI-(Pen)+IPD-NH2 (peptide)
peptide: [4Pal]ICSRS[tBuAla]PPI[Pen]IPD-NH2
modifications: disulfide 3-11; N-terminus assumed
SMILES: CC[C@H](C)[C@H](NC(=O)[C@@H](N)Cc1ccncc1)C(=O)N[C@H]1CSSC(C)(C)[C@@H](C(=O)N[C@H](C(=O)N2CCC[C@H]2C(=O)N[C@@H](CC(=O)O)C(N)=O)[C@@H](C)CC)NC(=O)[C@H]([C@@H](C)CC)NC(=O)[C@@H]2CCCN2C(=O)[C@@H]2CCCN2C(=O)[C@H](CC(C)(C)C)NC(=O)[C@H](CO)NC(=O)[C@H](CCCNC(=N)N)NC(=O)[C@H](CO)NC1=O
B14: FIC+SRS-((tBu)A)-PPI-(Pen)+IPD-NH2 (peptide)
peptide: FICSRS[tBuAla]PPI[Pen]IPD-NH2
modifications: disulfide 3-11; N-terminus assumed
SMILES: CC[C@H](C)[C@H](NC(=O)[C@@H](N)Cc1ccccc1)C(=O)N[C@H]1CSSC(C)(C)[C@@H](C(=O)N[C@H](C(=O)N2CCC[C@H]2C(=O)N[C@@H](CC(=O)O)C(N)=O)[C@@H](C)CC)NC(=O)[C@H]([C@@H](C)CC)NC(=O)[C@@H]2CCCN2C(=O)[C@@H]2CCCN2C(=O)[C@H](CC(C)(C)C)NC(=O)[C@H](CO)NC(=O)[C@H](CCCNC(=N)N)NC(=O)[C@H](CO)NC1=O

What follows are binders tested against Recombinant human MASP2 enzyme (fragment corresponding to amino acids 297-686, C-terminal His Tag) (human, UniProt O00187 297-686) (assay: cell-based or functional assay).
Recombinant human MASP2 enzyme (fragment corresponding to amino acids 297-686, C-terminal His Tag), sequence (O00187 other isoform, or with tags, fused parts or gaps limits assumed): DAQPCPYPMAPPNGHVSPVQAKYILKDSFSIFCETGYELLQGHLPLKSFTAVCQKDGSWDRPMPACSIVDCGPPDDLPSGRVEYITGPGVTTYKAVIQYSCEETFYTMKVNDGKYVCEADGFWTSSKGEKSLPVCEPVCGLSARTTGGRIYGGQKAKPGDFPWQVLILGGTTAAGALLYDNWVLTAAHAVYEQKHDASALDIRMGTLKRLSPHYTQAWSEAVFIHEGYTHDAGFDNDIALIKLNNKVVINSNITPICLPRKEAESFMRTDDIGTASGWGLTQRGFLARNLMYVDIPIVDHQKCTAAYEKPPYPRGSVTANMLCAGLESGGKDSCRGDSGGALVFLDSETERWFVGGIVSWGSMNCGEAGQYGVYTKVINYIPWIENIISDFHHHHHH

Row | Binder | human MASP2 IC50 [nM]
1 | B1 | 220
2 | B2 | 170
3 | B3 | 13
4 | B4 | 140
5 | B5 | 740
6 | B6 | 61
7 | B7 | 27
8 | B8 | 410
9 | B9 | 16
10 | B10 | 180
11 | B11 | 120
12 | B12 | 51
13 | B13 | 65
14 | B14 | 73

The binders below were run against T1, Recombinant human MASP1 enzyme … (assay: cell-based or functional assay).

Row | Binder | human MASP1 IC50 [nM]
15 | B1 | 6.3
16 | B2 | 6.1
17 | B3 | 6.5
18 | B4 | 6.5
19 | B5 | 6
20 | B6 | 5.8
21 | B7 | 6.1
22 | B8 | 6.5
23 | B9 | 6.4
24 | B10 | 6.2
25 | B11 | 6.6
26 | B12 | 5.8
27 | B13 | 6.4
28 | B14 | 5.8
